Results: PMC6310132
Values belong to the substance of their own block, whether it stands above or below them.

How the values were obtained:
Assay in all cases: SPR
[1] = molecular target: rat organ of Corti AP2mu1, pRSET-A fusion protein (SPR and Figure 7A,B) (rat) (UniProt P84092)
[2] = molecular target: N-ethylmaleimide-sensitive factor (NSF), pRSET-A fusion protein (mouse) (UniProt P46460)
[3] = molecular target: trout saccular hair cell snapin, pRSET-A fusion protein (trout)
[4] = molecular target: trout saccular hair cell dopamine D1A4 carboxy terminus, pRSET-A fusion protein (trout)
[5] = molecular target: trout saccular hair cell otoferlin C2F domain, pRSET-A fusion protein (trout)

Chain of N-ethylmaleimide-sensitive factor (NSF), pRSET-A fusion protein (mouse) (P46460 whole entry, the tested form may be a part): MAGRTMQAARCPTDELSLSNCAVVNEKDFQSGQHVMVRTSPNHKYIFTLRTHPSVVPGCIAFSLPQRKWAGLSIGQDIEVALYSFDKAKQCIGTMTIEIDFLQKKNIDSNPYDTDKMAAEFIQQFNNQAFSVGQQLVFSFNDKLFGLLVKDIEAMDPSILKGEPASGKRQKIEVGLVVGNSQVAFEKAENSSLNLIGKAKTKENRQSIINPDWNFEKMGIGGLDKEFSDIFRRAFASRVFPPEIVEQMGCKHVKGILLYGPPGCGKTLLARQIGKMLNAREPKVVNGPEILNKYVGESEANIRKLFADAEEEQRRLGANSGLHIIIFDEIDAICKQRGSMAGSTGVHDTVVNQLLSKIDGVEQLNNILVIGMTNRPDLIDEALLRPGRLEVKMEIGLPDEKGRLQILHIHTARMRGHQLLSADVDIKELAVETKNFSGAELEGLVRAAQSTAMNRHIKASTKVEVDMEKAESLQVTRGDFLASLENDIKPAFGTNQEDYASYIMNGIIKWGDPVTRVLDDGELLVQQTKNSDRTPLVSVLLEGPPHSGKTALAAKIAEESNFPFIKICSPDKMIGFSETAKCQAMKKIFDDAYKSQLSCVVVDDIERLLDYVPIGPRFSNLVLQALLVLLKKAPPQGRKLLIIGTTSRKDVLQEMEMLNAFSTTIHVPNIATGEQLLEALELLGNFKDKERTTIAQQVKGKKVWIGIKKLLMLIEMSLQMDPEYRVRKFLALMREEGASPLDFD

- Kd [1]: 0.129 µM
- koff [1]: 0.00273 s⁻¹
- kon [1]: 21200 M⁻¹ s⁻¹
- Kd [2]: 0.00229 µM
- koff [2]: 0.00073 s⁻¹
Substance: rat organ of Corti otoferlin C2F domain, pRSET-A fusion protein used for SPR (domain or fragment)

- Kd [3]: 0.0146 µM
- koff [3]: 0.00174 s⁻¹
Substance: trout saccular hair cell dopamine D1A4 carboxy terminus, pRSET-A fusion protein (domain or fragment)

- Kd [3]: 0.013 µM
- koff [3]: 0.00407 s⁻¹
Substance: trout saccular hair cell otoferlin C2F domain, pRSET-A fusion protein (domain or fragment)

- Kd [4]: 0.0269 µM
- koff [4]: 0.00784 s⁻¹
- Kd [5]: 0.0234 µM
- koff [5]: 0.00348 s⁻¹
Substance: trout saccular hair cell snapin, pRSET-A fusion protein (domain or fragment)
